± gives the standard deviation of the averaged measurements.
B1: library; a variant is named by its letters at N, in order (parent)
chain: ACATTTGTTGATACAACCATAAAATGATAATTACACCCATAAATTGATAATTATCACACCCANNNNNNNNNNNNNNCTCTGATCATAGTCAGACCAACATTGCTACGACCCGTATTCGCACCGACAC

Key:
[1] = variants of: B1; test: relative integration efficiency (T-RL orientation) vs wild-type transposon end (log2 (normalized fold change)); transposon end mutated: right end (5 bp flank + 75 bp right end); higher = more efficient transposition; conditions: with VchCAST RNA-guided transposition machinery (E. coli BL21(DE3) host, lacZ target)
Protocol: (§1)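 Pooled, barcoded VchCAST (Tn6677) mini-transposon donor libraries; each variable transposon-end sequence sits in a fixed pDonor mini-transposon context (10-bp barcode and cargo not included). Left- or right-end libraries were co-transformed with pEffector (TniQ-Cascade, TnsABC, lacZ crRNA, T7, 0.1 mM IPTG) into E. coli BL21(DE3) and grown 18 h at 37 C. T-LR and T-RL junction amplicons were sequenced; output/input barcode fold change was normalised to the mean of four wild-type barcodes and log2-transformed. Two biological replicates; zero-count/undetected variants carry floor values (-10 / -15), censored here. Barcode uncoupling by PCR recombination adds noise.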

[2] = variants of: B1; test: relative integration efficiency (T-LR orientation) vs wild-type transposon end (log2 (normalized fold change)); transposon end mutated: right end (5 bp flank + 75 bp right end); higher = more efficient transposition; conditions: with VchCAST RNA-guided transposition machinery (E. coli BL21(DE3) host, lacZ target)
Protocol: as §1

TAAATTGATATTGC A27C
relative integration efficiency (log2) [1]: -0.753 ± 0.18 | relative integration efficiency (log2) [2]: -0.281 ± 0.16

TAAATTGATATTGC A27G
relative integration efficiency (log2) [1]: -0.495 ± 0.11 | relative integration efficiency (log2) [2]: -0.445 ± 0.25

TAAATTGATATTGC C14A
relative integration efficiency (log2) [1]: -0.119 ± 0.027 | relative integration efficiency (log2) [2]: -0.254 ± 0.16

TAAATTGATATTGC C14G
relative integration efficiency (log2) [1]: -0.477 ± 0.036 | relative integration efficiency (log2) [2]: -1.2 ± 0.21

TAAATTGATATTGC C14T
relative integration efficiency (log2) [1]: -0.00853 ± 0.13 | relative integration efficiency (log2) [2]: 0.0199 ± 0.32

TAAATTGATATTCC
relative integration efficiency (log2) [1]: -0.154 ± 0.11 | relative integration efficiency (log2) [2]: -0.146 ± 0.21

TAAATTGATATTCG
relative integration efficiency (log2) [1]: -0.0179 ± 0.025 | relative integration efficiency (log2) [2]: -0.258 ± 0.12

TAAAGGTCTATTGC
relative integration efficiency (log2) [1]: -0.635 ± 0.042 | relative integration efficiency (log2) [2]: 2.17 ± 0.33

TAAAATGATAATTA C59A
relative integration efficiency (log2) [1]: 0.000716 ± 0.075 | relative integration efficiency (log2) [2]: -0.0217 ± 0.15

TAAATACTAATTGC
relative integration efficiency (log2) [1]: -0.376 ± 0.27 | relative integration efficiency (log2) [2]: 2.61 ± 0.13

TAAATTGATAGTGC
relative integration efficiency (log2) [1]: -0.0439 ± 0.022 | relative integration efficiency (log2) [2]: 0.754 ± 0.013

TAAATTGATAGGGC
relative integration efficiency (log2) [1]: 0.0268 ± 0.029 | relative integration efficiency (log2) [2]: 1.18 ± 0.057

TAAATTGATATTGC A62T
relative integration efficiency (log2) [1]: -0.435 ± 0.12 | relative integration efficiency (log2) [2]: 1.36 ± 0.086

TAAATTGATATTGC A62C
relative integration efficiency (log2) [1]: -0.726 ± 0.016 | relative integration efficiency (log2) [2]: 2.18 ± 0.2

TAAATTGATATTGC A62G
relative integration efficiency (log2) [1]: -0.0391 ± 0.14 | relative integration efficiency (log2) [2]: 0.97 ± 0.12

TAAATTGATATGTC
relative integration efficiency (log2) [1]: -0.17 ± 0.058 | relative integration efficiency (log2) [2]: 0.485 ± 0.25

TAAATTGATATTGC A33T
relative integration efficiency (log2) [1]: -0.264 ± 0.0049 | relative integration efficiency (log2) [2]: -0.243 ± 0.38

TAAATTGATATTGC A33G
relative integration efficiency (log2) [1]: 0.137 ± 0.055 | relative integration efficiency (log2) [2]: -0.127 ± 0.057

TAAATTGATATTGC A33C
relative integration efficiency (log2) [1]: 0.00253 ± 0.071 | relative integration efficiency (log2) [2]: 0.14 ± 0.18

TAAATTGATATTGC A29C
relative integration efficiency (log2) [1]: -0.793 ± 0.055 | relative integration efficiency (log2) [2]: -0.254 ± 0.12

TAAATTGATATTGC A29T
relative integration efficiency (log2) [1]: -0.372 ± 0.011 | relative integration efficiency (log2) [2]: 0.436 ± 0.063

TAAATTGATATTGC A29G
relative integration efficiency (log2) [1]: -0.169 ± 0.087 | relative integration efficiency (log2) [2]: -0.293 ± 0.074

TAAATTGATATTGC C36A
relative integration efficiency (log2) [1]: 0.40973 ± 0.00019 | relative integration efficiency (log2) [2]: 0.478 ± 0.0049

TAAATTGATATTGC C36T
relative integration efficiency (log2) [1]: -0.172 ± 0.077 | relative integration efficiency (log2) [2]: -0.179 ± 0.053

TAAATTGATATTGC C36G
relative integration efficiency (log2) [1]: -0.469 ± 0.0075 | relative integration efficiency (log2) [2]: -0.695 ± 0.23

CAAATTGATATTGC
relative integration efficiency (log2) [1]: -0.643 ± 0.087 | relative integration efficiency (log2) [2]: 1.861 ± 0.015

TAAATTGATATTGC C34A
relative integration efficiency (log2) [1]: -0.0537 ± 0.0045 | relative integration efficiency (log2) [2]: 0.162 ± 0.16

TAAATTGATATTGC C34T
relative integration efficiency (log2) [1]: -1.32 ± 0.14 | relative integration efficiency (log2) [2]: -0.474 ± 0.43

TAAATTGATATTGC C34G
relative integration efficiency (log2) [1]: -0.73 ± 0.11 | relative integration efficiency (log2) [2]: -0.479 ± 0.0065

TAAATTCTATTTGC
relative integration efficiency (log2) [1]: -0.619 ± 0.18 | relative integration efficiency (log2) [2]: 2.22 ± 0.053

TAAATACATATTGC
relative integration efficiency (log2) [1]: -0.637 ± 0.26 | relative integration efficiency (log2) [2]: 2.3 ± 0.041

TAAAGTGATATTTA C59A
relative integration efficiency (log2) [1]: -0.094 ± 0.095 | relative integration efficiency (log2) [2]: -0.17 ± 0.3

TAAATTGATATGTA C77A
relative integration efficiency (log2) [1]: -0.158 ± 0.089 | relative integration efficiency (log2) [2]: 0.332 ± 0.19

TAAATTGATATTGC A1T
relative integration efficiency (log2) [1]: -0.0487 ± 0.062 | relative integration efficiency (log2) [2]: -0.0517 ± 0.26

TAAATTGATATTGC A1C
relative integration efficiency (log2) [1]: -0.117 ± 0.016 | relative integration efficiency (log2) [2]: -0.165 ± 0.27

TAAATTGATATTGC A1G
relative integration efficiency (log2) [1]: -0.139 ± 0.068 | relative integration efficiency (log2) [2]: -0.251 ± 0.32

TAAATTGATATTGC A15T
relative integration efficiency (log2) [1]: -0.218 ± 0.022 | relative integration efficiency (log2) [2]: -0.624 ± 0.069

TAAATTGATATTGC A15C
relative integration efficiency (log2) [1]: 0.297 ± 0.19 | relative integration efficiency (log2) [2]: 0.449 ± 0.3

TAAATTGATATTGC A15G
relative integration efficiency (log2) [1]: -0.381 ± 0.0063 | relative integration efficiency (log2) [2]: -0.228 ± 0.029

AAAATTGATATTGC
relative integration efficiency (log2) [1]: -0.0332 ± 0.012 | relative integration efficiency (log2) [2]: 0.998 ± 0.085

TAAATTGATATTGC C57G
relative integration efficiency (log2) [1]: -0.05 ± 0.075 | relative integration efficiency (log2) [2]: 1.552 ± 0.015

TAAATTGATATTGC C57T
relative integration efficiency (log2) [1]: -0.204 ± 0.0024 | relative integration efficiency (log2) [2]: 0.91 ± 0.032

TAAATTGATATTGC C57A
relative integration efficiency (log2) [1]: -0.104 ± 0.063 | relative integration efficiency (log2) [2]: 0.461 ± 0.12

TAAATTGATATTGC C2A
relative integration efficiency (log2) [1]: 0.0243 ± 0.04 | relative integration efficiency (log2) [2]: 0.336 ± 0.22

TAAATTGATATTGC C2T
relative integration efficiency (log2) [1]: -0.0194 ± 0.017 | relative integration efficiency (log2) [2]: 0.0698 ± 0.22

TAAATTGATATTGC C2G
relative integration efficiency (log2) [1]: 0.0801 ± 0.019 | relative integration efficiency (log2) [2]: 0.363 ± 0.28

TAAATTGAGCTTGC
relative integration efficiency (log2) [1]: -0.264 ± 0.034 | relative integration efficiency (log2) [2]: 1.51 ± 0.32

TAAATTGATATTGC C38A
relative integration efficiency (log2) [1]: -0.117 ± 0.04 | relative integration efficiency (log2) [2]: -0.451 ± 0.24

TAAATTGATATTGC C38T
relative integration efficiency (log2) [1]: 0.335 ± 0.044 | relative integration efficiency (log2) [2]: -0.111 ± 0.49

TAAATTGATATTGC C38G
relative integration efficiency (log2) [1]: 0.03 ± 0.16 | relative integration efficiency (log2) [2]: -0.489 ± 0.06

TAAATTGATATTAC
relative integration efficiency (log2) [1]: -0.14 ± 0.1 | relative integration efficiency (log2) [2]: 0.0276 ± 0.11

TAAATTGATAATGC
relative integration efficiency (log2) [1]: 0.111 ± 0.029 | relative integration efficiency (log2) [2]: 0.354 ± 0.21

TAAATTGATATAGC
relative integration efficiency (log2) [1]: -0.0924 ± 0.038 | relative integration efficiency (log2) [2]: 0.0501 ± 0.056

TAAATTGATATACC
relative integration efficiency (log2) [1]: -0.223 ± 0.13 | relative integration efficiency (log2) [2]: 0.207 ± 0.58

TAAATTGATATTGC A39C
relative integration efficiency (log2) [1]: -1.23 ± 0.021 | relative integration efficiency (log2) [2]: -1.05 ± 0.2

TAAATTGATATTGC A39T
relative integration efficiency (log2) [1]: -0.236 ± 0.061 | relative integration efficiency (log2) [2]: -0.533 ± 0.43

TAAATTGATATTGC A39G
relative integration efficiency (log2) [1]: -0.0861 ± 0.07 | relative integration efficiency (log2) [2]: -0.449 ± 0.17

From the supplement of paper PMC10201428
